We go through one molecule from article PMC6941951, “Conditional control of RNA-guided nucleic acid cleavage and gene editing”.

For this data set, the target named is T1, dCas13a (LbuCas13a R1079A/K1080A) (Leptotrichia buccalis, UniProt C7NBY4 1-1159, R1079A;K1080A).
T1 sequence: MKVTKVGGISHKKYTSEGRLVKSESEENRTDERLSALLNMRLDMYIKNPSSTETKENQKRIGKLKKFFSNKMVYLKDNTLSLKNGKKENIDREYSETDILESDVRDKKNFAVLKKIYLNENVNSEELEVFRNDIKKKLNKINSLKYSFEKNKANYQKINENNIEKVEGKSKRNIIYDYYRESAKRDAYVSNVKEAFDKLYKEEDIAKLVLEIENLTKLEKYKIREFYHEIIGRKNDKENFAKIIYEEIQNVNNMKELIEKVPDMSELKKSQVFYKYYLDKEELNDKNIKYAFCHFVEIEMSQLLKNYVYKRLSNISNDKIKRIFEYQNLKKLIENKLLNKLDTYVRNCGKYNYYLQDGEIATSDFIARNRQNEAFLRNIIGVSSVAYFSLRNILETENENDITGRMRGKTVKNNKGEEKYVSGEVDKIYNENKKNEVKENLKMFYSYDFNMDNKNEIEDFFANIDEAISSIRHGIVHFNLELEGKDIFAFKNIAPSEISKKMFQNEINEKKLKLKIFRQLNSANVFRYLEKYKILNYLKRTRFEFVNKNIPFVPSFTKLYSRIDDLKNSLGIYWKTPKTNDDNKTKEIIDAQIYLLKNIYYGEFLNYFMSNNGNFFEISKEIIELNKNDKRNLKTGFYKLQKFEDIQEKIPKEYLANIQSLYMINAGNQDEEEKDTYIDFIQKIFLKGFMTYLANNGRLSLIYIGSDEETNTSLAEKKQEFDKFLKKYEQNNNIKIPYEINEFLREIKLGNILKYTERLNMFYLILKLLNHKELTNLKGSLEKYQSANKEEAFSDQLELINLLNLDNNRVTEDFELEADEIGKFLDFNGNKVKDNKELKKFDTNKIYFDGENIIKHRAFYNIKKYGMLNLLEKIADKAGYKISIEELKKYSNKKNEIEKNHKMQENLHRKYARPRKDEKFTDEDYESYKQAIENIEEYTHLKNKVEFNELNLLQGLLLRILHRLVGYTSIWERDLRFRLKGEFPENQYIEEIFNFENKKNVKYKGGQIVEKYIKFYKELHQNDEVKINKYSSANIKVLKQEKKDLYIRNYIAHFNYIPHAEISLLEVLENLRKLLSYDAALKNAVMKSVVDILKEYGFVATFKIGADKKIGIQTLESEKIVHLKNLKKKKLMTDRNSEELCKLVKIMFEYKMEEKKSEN
As to the kind of experiment: EMSA; no target RNA; dCas13a EMSA: 20 mM HEPES pH 6.8 (25 C), 50 mM KCl, 10 ug/mL BSA, 100 ug/mL yeast tRNA, 0.01% Igepal CA-630, 5% glycerol; 10 min at 37 C; 6% native PAGE at 4 C. The settings on record: protein: recombinant; tags: His6-MBP removed with TEV protease; label: 5'-Cy3; single strand, repeat hairpin. (In general: Mobility shift assays separate free from complexed probe on a gel.)

B1: crRNA13a-Cy3 (unmasked) (structured_RNA)
RNA: GAUUUAGACUACCCCAAAAACGAAGGGGACUAAAACUAGAUUGCUGUUCUACCAAGUAAUCCAU
Turning to B1, the binding result was “binds”.
